Assay results: patent US20230393125A1 (Hoffmann-La Roche, published 2023)

Biological target: T1, recombinant cynomolgus CCL2 (cynomolgus monkey, UniProt P61274 24-99)
T1 construct: also called cyCCL2; cynomolgus monkey CCL2
Assay: Gyrolab sandwich assay; detection reagent
Description: A Gyrolab™ based method was used in this example. Recombinant cynomolgus CCL2 samples were prepared in assay buffer (PBS, 0.1% (v/v) Tween-20, 1% BSA) and analyzed on a Gyrolab Xplore. […] All reagents and samples were transferred to a 96-well PCR plate and loaded into the instrument together with a Gyrolab BioAffy 200 nL disc (Gyros Protein Technologies AB). A three-step assay protocol (200-3W-001) was selected. […] Each reagent reaches the column at the same time after a short spinning step is applied to the disc. The columns were washed with PBS with 0.05 Tween after each step and finally laser induced fluorescence values were recorded within the instrument. A non-linear 4-parameter curve-fitting function (Wiemer-Rodbard) was applied to the averaged raw data to obtain a calibration curve.

B1: humanized anti-CCL2 antibody 11K2 (CCL2-0002) (antibody, V domains shown)
VH: QVQLVQSGAEVKKPGSSVKVSCKASGLTISDTYMHWVRQAPGQGLEWMGRIDPANGNTKFDPKFQGRVTITADTSTSTAYMELSSLRSEDTAVYYCARGVFGFFDYWGQGTTVTVSS
VL: DIQMTQSPSSLSASVGDRVTITCKATEDIYNRLAWYQQKPGKAPKLLISGATSLETGVPSRFSGSGSGTDYTLTISSLQPEDFATYYCQQFWSAPYTFGGGTKVEIK
modifications: Used as a digoxigenin or Alexa 647 conjugate; conjugation sites not stated.
notes: Detection reagent; also called Humanized 11K2; 11K2-Dig
B1: binds.
